Assay results reported in patent US9212226B2, “Amino acid sequences directed against CXCR4 and other GPCRs and compounds comprising the same” (Ablynx N.V., priority 2008, dated 2015).
Entries after “also recorded” stand apart in the source; their conditions may differ.

B1: 238D2-20GS-238D4: heterobivalent Nanobody, 238D2 linked to 238D4 by a 20 amino acid GGGGS linker (protein)
chain: EVQLVESGGGLVQTGGSLRLSCAASGFTFSSYAMSWVRQAPGKGLEWVSGIKSSGDSTRYAGSVKGRFTISRDNAKNMLYLQMYSLKPEDTAVYYCAKSRVSRTGLYTYDNRGQGTQVTVSSGGGGSGGGGSGGGGSGGGGSEVQLMESGGGLVQAGGSLRLSCAASGRTFNNYAMGWFRRAPGKEREFVAAITRSGVRSGVSAIYGDSVKDRFTISRDNAKNTLYLQMNSLKPEDTAVYTCAASAIGSGALRRFEYDYSGQGTQVTVSS
modifications: Nanobody, Nanobody constructs or fragments thereof
notes: heterobivalent Nanobody, 238D2 linked to 238D4 by a 20 amino acid GGGGS linker
B2: 238D2-15GS-238D4: heterobivalent Nanobody, 238D2 linked to 238D4 by a 15 amino acid GGGGS linker (protein)
chain: EVQLVESGGGLVQTGGSLRLSCAASGFTFSSYAMSWVRQAPGKGLEWVSGIKSSGDSTRYAGSVKGRFTISRDNAKNMLYLQMYSLKPEDTAVYYCAKSRVSRTGLYTYDNRGQGTQVTVSSGGGGSGGGGSGGGGSEVQLMESGGGLVQAGGSLRLSCAASGRTFNNYAMGWFRRAPGKEREFVAAITRSGVRSGVSAIYGDSVKDRFTISRDNAKNTLYLQMNSLKPEDTAVYTCAASAIGSGALRRFEYDYSGQGTQVTVSS
modifications: Nanobody, Nanobody constructs or fragments thereof
notes: heterobivalent Nanobody, 238D2 linked to 238D4 by a 15 amino acid GGGGS linker
B3: 238C5: Nanobody (VHH) raised against human CXCR4, SEQ ID NO: 243 (protein)
VHH: EVQLMESGGGLVQAGGSLRLACAASGFTFEDYAIGWFRKAPGKEREGVSCISGSDGSTTYADSVKGRFTISTDNAKNTVYLEMNSLKPEDTAVYYCAQQYGVGGRVVCPGPYEYDVWGQGTQVTVSS
modifications: Nanobody, Nanobody constructs or fragments thereof

How the values were obtained:
CXCR4 [1] = target: T1, CXCR4 (Homo sapiens, UniProt P61073); test: [125I]-CXCL12 competition binding on membranes from HEK293T cells transiently expressing CXCR4; conditions: for Rel. potency, relative to monovalent 238D2 / Rel. potency, relative to monovalent 238D4: [125I]-CXCL12 displacement; for Rel. potency, relative to monovalent 238D2: potency relative to those of monovalent 238D2; for Rel. potency, relative to monovalent 238D4: potency relative to those of monovalent 238D4
T1 sequence (P61073 whole entry): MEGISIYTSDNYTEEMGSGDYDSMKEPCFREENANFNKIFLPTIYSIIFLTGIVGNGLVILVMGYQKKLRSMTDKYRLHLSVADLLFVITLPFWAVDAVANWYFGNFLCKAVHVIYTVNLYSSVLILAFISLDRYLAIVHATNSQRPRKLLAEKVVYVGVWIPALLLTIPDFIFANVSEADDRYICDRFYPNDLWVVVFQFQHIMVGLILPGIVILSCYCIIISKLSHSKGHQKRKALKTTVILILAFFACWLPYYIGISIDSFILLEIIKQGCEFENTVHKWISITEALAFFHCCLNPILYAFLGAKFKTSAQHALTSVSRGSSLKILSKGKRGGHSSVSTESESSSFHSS
Method: (§1) HEK293T cells were maintained at 37° C. in a humidified 5% CO2, 95% air atmosphere in Dulbecco's modified Eagle's medium (DMEM) containing 2 mM L-glutamine, 50 IU/ml penicillin, 50 μg/ml streptomycin, and 10% (v/v) fetal calf serum. Jurkat cells were cultured in a humidified 5% CO2, 95% air atmosphere in a 1:1 mixture of Dulbecco's modified Eagle's medium (DMEM) and Ham's F12 medium containing 2 mM L-glutamine, 50 IU/ml penicillin, 50 μg/ml streptomycin, and 10% (v/v) fetal calf serum. […] [^125 I]-Labelling— Radiolabeling of Nanobodies with ^125I was performed using the Iodo-gen method (Pierce, Rockford, Ill.) according to the manufacturer's protocol. ^125I-labeled Nanobodies was separated from free iodine (>99%) using a Sephadex G-25 gel filtration column (Amersham Biosciences, Piscataway, N.J.). […] Competition Binding Assays— Membranes from HEK293T cells transiently expressing CXCR3 or CXCR4 were prepared 48 h after transfection as follows. Cells were washed and scraped from the cell culture dishes with ice-cold PBS containing 1 mm EDTA. The scraped cells were pelleted at 1500×g for 10 min at 4° C. The pellet was washed and then resuspended in ice-cold membrane buffer (15 mM Tris, pH 7.5, 1 mM EGTA, 0.3 mM EDTA, and 2 mM MgCl2). The cell suspension was homogenized by 10 strokes at 1200 rpm using a Teflon-glass homogenizer and rotor and further subjected to three freeze-thaw cycles using liquid nitrogen. Membranes were separated by centrifugation at 40,000 g for 25 min at 4° C. The membrane pellet was washed and resuspended in ice-cold Tris-sucrose buffer (20 mM Tris, pH 7.4, and 250 mM sucrose) and frozen in liquid nitrogen. The total protein was determined using a Bradford assay (Bio-Rad). […] Membranes were then harvested over polyethylenimine (0.5%)-treated Whatman GF/C filter plates and washed three times with ice cold binding buffer containing 500 mM NaCl. Plates were counted by liquid scintillation. Inositol Phosphate Accumulation Assay— 24 hours post transfection with pcDNA3.1-CXCR4 and pcDNA1-HA-mG {alpha} qi5 (see Verzijl et al, 2008 supra), 250.000 cells were seeded into 24-wells plates and labelled overnight using inositol-free minimal essential medium supplemented with 1 μCi myo-[2-^3H]-inositol. The next day, the cells were washed once to remove not incorporated myo-[2-^3H]-inositol. […] In agonist experiments, the cells were directly stimulated with test compounds and LiCl (10 mM) in assay buffer for 2 h at 37° C. The stimulation was stopped by aspirating the stimulation medium and adding ice-cold 10 mM formic acid. The accumulated inositol phosphates were isolated by anion exchange chromatography and counted by liquid scintillation. CRE Reporter Gene Assay— HEK239T cells were transfected with pCRE/β-galactosidase (Chen W, Shields T S, Stork P J S, Cone R D (1995) Anal Biochem 226:349-354) and plasmids (pcDEF3 or pcDNA3.1) encoding the indicated receptors. 40,000 transfected cells per well were seeded into 96 well plates and grown in DMEM supplemented with 10% fetal calf serum. The medium was replaced 32 h after transfection by serum-free DMEM supplemented with 0.5% bovine serum albumin and ligands as indicated. […] The β-galactosidase activity was determined by the measurement of absorption at 420 nm with a PowerwaveX340 plate reader (Bio-Tek Instruments Inc., Winooski, Vt.) after incubation with the assay buffer when the OD420 value for forskolin (3 μM) controls reached 0.4-0.6. Chemotaxis Assay— The chemotactic responsiveness of Jurkat 3D cells was assessed using ChemoTx™ plates (Receptor Technologies Ltd., Oxon, UK) in which a upper cell-containing compartment is separated from a lower chemoattractant-containing compartment by a polyvinylpyrollidone-free polycarbonate filter with 5-μm pores. Cells were harvested, washed and resuspended in RPMI containing 0.5% bovine serum albumin and then loaded to 150,000 cells per well in a volume of 25 μl into the upper compartment of the chemotaxis chamber.

CXCR4 [2] = target: T1, CXCR4; test: [125I]-238D4 competition binding on membranes from HEK293T cells transiently expressing CXCR4; conditions: for displacement of [125I]-238D4 from CXCR4: [125I]-238D4 3 nM
Method: as §1

CXCR4 [3] = target: T1, CXCR4; test: [125I]-238D2 competition binding on membranes from HEK293T cells transiently expressing CXCR4; conditions: for displacement of [125I]-238D2 from CXCR4: [125I]-238D2 3 nM
Method: as §1

CXCR4 (N119A) = CXCR4 (N119A) (Homo sapiens, UniProt P61073, N119A); test: Basal inositol phosphate accumulation in HEK293T cells expressing CXCR4 (N119A); format: cell-based
Chain of CXCR4 (N119A) (P61073 whole entry N119A): as the sequence (P61073 whole entry) above, with N119A counted along it
Method: (§2) HEK293T cells were maintained at 37° C. in a humidified 5% CO2, 95% air atmosphere in Dulbecco's modified Eagle's medium (DMEM) containing 2 mM L-glutamine, 50 IU/ml penicillin, 50 μg/ml streptomycin, and 10% (v/v) fetal calf serum. Jurkat cells were cultured in a humidified 5% CO2, 95% air atmosphere in a 1:1 mixture of Dulbecco's modified Eagle's medium (DMEM) and Ham's F12 medium containing 2 mM L-glutamine, 50 IU/ml penicillin, 50 μg/ml streptomycin, and 10% (v/v) fetal calf serum. […] [^125 I]-Labelling— Radiolabeling of Nanobodies with ^125I was performed using the Iodo-gen method (Pierce, Rockford, Ill.) according to the manufacturer's protocol. ^125I-labeled Nanobodies was separated from free iodine (>99%) using a Sephadex G-25 gel filtration column (Amersham Biosciences, Piscataway, N.J.). […] Competition Binding Assays— Membranes from HEK293T cells transiently expressing CXCR3 or CXCR4 were prepared 48 h after transfection as follows. Cells were washed and scraped from the cell culture dishes with ice-cold PBS containing 1 mm EDTA. The scraped cells were pelleted at 1500×g for 10 min at 4° C. The pellet was washed and then resuspended in ice-cold membrane buffer (15 mM Tris, pH 7.5, 1 mM EGTA, 0.3 mM EDTA, and 2 mM MgCl2). The cell suspension was homogenized by 10 strokes at 1200 rpm using a Teflon-glass homogenizer and rotor and further subjected to three freeze-thaw cycles using liquid nitrogen. Membranes were separated by centrifugation at 40,000 g for 25 min at 4° C. The membrane pellet was washed and resuspended in ice-cold Tris-sucrose buffer (20 mM Tris, pH 7.4, and 250 mM sucrose) and frozen in liquid nitrogen. The total protein was determined using a Bradford assay (Bio-Rad). Periplasmas (1:10) or ligands were pre-incubated with membranes in binding buffer (50 mM HEPES (pH 7.4), 1 mM CaCl2, 5 mM MgCl2, 100 mM NaCl, 0.5% bovine serum albumin) supplemented with 0.5% BSA for 1 h at 22° C. before the addition of [^125I]-CXCL12 (40 pM) or [^125I]-238D2 (3 nM) or [^125I]-238D4 (3 nM) for additional 2 h at 22° C. […] Membranes were then harvested over polyethylenimine (0.5%)-treated Whatman GF/C filter plates and washed three times with ice cold binding buffer containing 500 mM NaCl. Plates were counted by liquid scintillation. Inositol Phosphate Accumulation Assay— 24 hours post transfection with pcDNA3.1-CXCR4 and pcDNA1-HA-mG {alpha} qi5 (see Verzijl et al, 2008 supra), 250.000 cells were seeded into 24-wells plates and labelled overnight using inositol-free minimal essential medium supplemented with 1 μCi myo-[2-^3H]-inositol. The next day, the cells were washed once to remove not incorporated myo-[2-^3H]-inositol. […] In agonist experiments, the cells were directly stimulated with test compounds and LiCl (10 mM) in assay buffer for 2 h at 37° C. The stimulation was stopped by aspirating the stimulation medium and adding ice-cold 10 mM formic acid. The accumulated inositol phosphates were isolated by anion exchange chromatography and counted by liquid scintillation. CRE Reporter Gene Assay— HEK239T cells were transfected with pCRE/β-galactosidase (Chen W, Shields T S, Stork P J S, Cone R D (1995) Anal Biochem 226:349-354) and plasmids (pcDEF3 or pcDNA3.1) encoding the indicated receptors. 40,000 transfected cells per well were seeded into 96 well plates and grown in DMEM supplemented with 10% fetal calf serum. The medium was replaced 32 h after transfection by serum-free DMEM supplemented with 0.5% bovine serum albumin and ligands as indicated. […]

[4] = test system: Jurkat cells endogenously expressing CXCR4; test: Chemotaxis assay (ChemoTx plates) with Jurkat cells towards CXCL12; format: cell-based; conditions: for inhibition of migration of Jurkat cells towards CXCL12: 300 pM CXCL12; for Imax (%), Chemotaxis, bivalent Nanobodies: Jurkat/0.3 nM CXCL12, mean ± S.E.M.; for pKi, antagonism of the chemoattractant effects of CXCL12: n=3
Method: as §2, with “indicated. Following 16 h of ligand incubation, the medium was removed, the cells were lysed in 100 μl of assay buffer (100 mM sodium phosphate buffer at pH 8.0, 4 mM 2-nitrophenol-β-D-pyranoside, 0.5% Triton X-100, 2 mM MgSO4, 0.1 mM MnCl2, and 40 mM β-mercaptoethanol) and incubated at room temperature.” for “indicated.”

[5] = membranes from HEK293T cells transiently expressing CXCR4, mean ± S.E.M.
[6] = at highest test concentration of 0.5 μM (footnote a: no significant displacement; b: maximum not reached)

| Molecule | displacement of [125I]-238D4 from CXCR4 (CXCR4 [2]) | displacement of [125I]-238D2 from CXCR4 (CXCR4 [3]) | Rel. potency, relative to monovalent 238D2 (CXCR4 [1]) | Rel. potency, relative to monovalent 238D4 (CXCR4 [1]) | Displacem. (%) of [125I]-CXCL12 (maximal displacement), bivalent Nanobodies (CXCR4 [1]; [5]) | pKi, [125I]-CXCL12, bivalent Nanobodies (CXCR4 [1]; [5]) | inhibition of migration of Jurkat cells towards CXCL12 [4] | Imax (%), Chemotaxis, bivalent Nanobodies [4] | pKi, antagonism of the chemoattractant effects of CXCL12 [4] | further results |
| --- | --- | --- | --- | --- | --- | --- | --- | --- | --- | --- |
| c1cc(CN2CCCNCCNCCCNCC2)ccc1CN1CCCNCCNCCCNCC1 [AMD3100, reference compound] | displaces | displaces | – | – | – | – | – | – | – | Displacem. (%) of [125I]-CXCL12 (maximal displacement) (CXCR4 [1]; [5]): 94 ± 2%; Displacem. (%) of [125I]-238D4 (maximal displacement) (CXCR4 [2]; [5]): 99 ± 4%; Displacem. (%) of [125I]-238D2 (maximal displacement) (CXCR4 [3]; [5]): 102 ± 1%; functional profile at CXCR4 (N119A) (CXCR4 (N119A); ligand-induced alteration of basal inositol phosphate accumulation, listed as plerixafor): neutral antagonist; also recorded: Neither significant agonistic nor inverse antagonistic activity; effect on the nanobody-induced reduction of basal inositol phosphate accumulation (CXCR4 (N119A); with 238D4, L3 and L8): antagonized |
| CXCL12: stromal-derived-factor-1, the natural (endogenous) ligand for CXCR4 [reference compound] | – | – | – | – | – | – | – | – | – | stimulation of the mutant receptor (CXCR4 (N119A); inositol phosphate accumulation): 0.4 fold over basal |
| B1 | – | – | 27 | 17 | 103 ± 4% | 9.44 ± 0.07 | fully antagonized | 100 ± 4% | 10.19±0.27 | increase in affinity to CXCR4 over monovalent 238D2 (CXCR4 [1]; heterobivalent construct): 27 fold; increase in affinity to CXCR4 over monovalent 238D4 (CXCR4 [1]; heterobivalent construct): 17 fold |
| B2 | – | – | 28 | 17 | 92 ± 6% | 9.45 ± 0.09 | fully antagonized | 107 ± 5% | 9.86±0.04 | – |
| B3 | displaces | displaces | – | – | – | – | – | – | – | Displacem. (%) of [125I]-CXCL12 at 0.5 μM (CXCR4 [1]; at highest test concentration of 0.5 μM (footnote a: no significant displacement)): 0^a %; affinity to CXCR4 (CXCR4 [1]; in words): low affinity; displacement of specifically bound [125I]-CXCL12 (CXCR4 [1]; purified ligands, highest Nanobody test concentration 0.5 μM): unable to displace; Binding (binding efficiency, competition binding with [125I]-CXCL12) (CXCR4 [1]; screening of Nanobody clone pools, membranes from HEK293T cells transiently expressing CXCR4): + (+ = 30-69%); Displacem. (%) of [125I]-238D4 at 0.5 μM (CXCR4 [2]; [6]): 38 ± 4^b %; Displacem. (%) of [125I]-238D2 at 0.5 μM (CXCR4 [3]; [6]): 45 ± 5^b %; binding mode at CXCR4 (CXCR4 [3]; displacement of labelled Nanobodies only at ≧100 nM): low affinity allosteric CXCR4 ligand |
